# Starred links: 1 amine or outer side, 2 acyl side, 3 side chain; linkers in the order of their positions; H or OH if unused. Non-standard residues stand in square brackets, D forms with d. Groups on a side chain read outwards from the residue. Primed or numbered codes have the meaning given here. No end group written: not given here. *: point of attachment. γGlu = O=C(O)[C@H](CCC(=O)[*:2])N[*:1]; Stearoyl = CCCCCCCCCCCCCCCCCC(=O)*; αMeF = C[C@](N)(Cc1ccccc1)C(=O)O; αMeK = C[C@](N)(CCCCN)C(=O)O; αMeS = C[C@](N)(CO)C(=O)O; PEG2′ = not defined here; Aib = CC(C)(N)C(=O)O
# T1: glucose-dependent insulinotropic peptide (gastric inhibitory polypeptide) receptor (human, UniProt P48546 22-466)
# T1 sequence (looked up): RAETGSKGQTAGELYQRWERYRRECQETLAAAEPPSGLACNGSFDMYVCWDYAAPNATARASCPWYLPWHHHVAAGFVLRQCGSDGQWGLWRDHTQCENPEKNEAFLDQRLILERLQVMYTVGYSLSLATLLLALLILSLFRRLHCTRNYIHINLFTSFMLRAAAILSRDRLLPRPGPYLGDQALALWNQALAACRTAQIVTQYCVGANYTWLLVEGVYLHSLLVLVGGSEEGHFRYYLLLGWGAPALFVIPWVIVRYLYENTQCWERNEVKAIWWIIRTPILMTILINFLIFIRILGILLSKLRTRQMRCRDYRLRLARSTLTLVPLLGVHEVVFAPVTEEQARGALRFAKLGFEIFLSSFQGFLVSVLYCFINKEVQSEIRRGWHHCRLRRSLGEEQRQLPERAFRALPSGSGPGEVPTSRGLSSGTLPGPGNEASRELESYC
# Experiments:
# Assay in all cases: cell-based or functional assay
# [1] = target: T1, glucose-dependent insulinotropic …
# glucagon receptor = glucagon receptor (human, UniProt P47871 26-477)
# GLP-1 receptor = GLP-1 receptor (human, UniProt P43220 24-463)
# Sequence of glucagon receptor (P47871 26-477): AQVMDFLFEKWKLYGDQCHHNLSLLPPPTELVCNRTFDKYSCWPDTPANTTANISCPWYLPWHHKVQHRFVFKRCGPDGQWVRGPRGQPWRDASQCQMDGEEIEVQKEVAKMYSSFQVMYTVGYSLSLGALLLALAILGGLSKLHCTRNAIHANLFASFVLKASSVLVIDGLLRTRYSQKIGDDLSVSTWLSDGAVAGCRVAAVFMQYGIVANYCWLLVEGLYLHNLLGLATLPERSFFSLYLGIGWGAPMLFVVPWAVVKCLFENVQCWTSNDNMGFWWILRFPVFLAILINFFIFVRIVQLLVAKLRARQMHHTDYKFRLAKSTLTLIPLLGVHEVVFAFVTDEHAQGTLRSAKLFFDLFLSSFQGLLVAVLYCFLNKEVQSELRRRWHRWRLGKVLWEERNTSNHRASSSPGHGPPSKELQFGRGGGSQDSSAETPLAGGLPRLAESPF
Binder,"Primary assay EC50 (cAMP), n1 [1] [nM]","Primary assay EC50 (cAMP), n2 [1] [nM]","Primary assay EC50 (cAMP), n1 (glucagon receptor) [nM]","Primary assay EC50 (cAMP), n2 (glucagon receptor) [nM]","Primary assay EC50 (cAMP), Mean pM GLP-1R (GLP-1 receptor) [pM]","Primary assay EC50 (cAMP), n1 (GLP-1 receptor) [nM]","Primary assay EC50 (cAMP), n2 (GLP-1 receptor) [nM]"
H[Aib]EGS[αMeF]TSDV[αMeS]S[αMeF]LEGEAAK([PEG2′-PEG2′-γGlu-Stearoyl])E[αMeF]IA[αMeF]VV[αMeK]GG-NH2 [SEQ ID NO 3],25,25,25,25,100,0.064,0.14
H[Aib]EGS[αMeF]TSDV[αMeS]S[αMeF]LEGEAA[αMeK]E[αMeF]IA[αMeF]VV[αMeK]GG-NH2 (N-terminus assumed; SMILES CC[C@H](C)[C@H](NC(=O)[C@](C)(Cc1ccccc1)NC(=O)[C@H](CCC(=O)O)NC(=O)[C@](C)(CCCCN)NC(=O)[C@H](C)NC(=O)[C@H](C)NC(=O)[C@H](CCC(=O)O)NC(=O)CNC(=O)[C@H](CCC(=O)O)NC(=O)[C@H](CC(C)C)NC(=O)[C@](C)(Cc1ccccc1)NC(=O)[C@H](CO)NC(=O)[C@](C)(CO)NC(=O)[C@@H](NC(=O)[C@H](CC(=O)O)NC(=O)[C@H](CO)NC(=O)[C@@H](NC(=O)[C@](C)(Cc1ccccc1)NC(=O)[C@H](CO)NC(=O)CNC(=O)[C@H](CCC(=O)O)NC(=O)C(C)(C)NC(=O)[C@@H](N)Cc1c[nH]cn1)[C@@H](C)O)C(C)C)C(=O)N[C@@H](C)C(=O)N[C@@](C)(Cc1ccccc1)C(=O)N[C@H](C(=O)N[C@H](C(=O)N[C@@](C)(CCCCN)C(=O)NCC(=O)NCC(N)=O)C(C)C)C(C)C) [SEQ ID NO 17],31,31,31,31,0.2,0.00025,0.00024
H[Aib]EGS[αMeF]T[αMeS]DV[αMeS]S[αMeF]LEGEAA[αMeK]E[αMeF]IA[αMeF]VV[αMeK]GG-NH2 (N-terminus assumed; SMILES CC[C@H](C)[C@H](NC(=O)[C@](C)(Cc1ccccc1)NC(=O)[C@H](CCC(=O)O)NC(=O)[C@](C)(CCCCN)NC(=O)[C@H](C)NC(=O)[C@H](C)NC(=O)[C@H](CCC(=O)O)NC(=O)CNC(=O)[C@H](CCC(=O)O)NC(=O)[C@H](CC(C)C)NC(=O)[C@](C)(Cc1ccccc1)NC(=O)[C@H](CO)NC(=O)[C@](C)(CO)NC(=O)[C@@H](NC(=O)[C@H](CC(=O)O)NC(=O)[C@](C)(CO)NC(=O)[C@@H](NC(=O)[C@](C)(Cc1ccccc1)NC(=O)[C@H](CO)NC(=O)CNC(=O)[C@H](CCC(=O)O)NC(=O)C(C)(C)NC(=O)[C@@H](N)Cc1c[nH]cn1)[C@@H](C)O)C(C)C)C(=O)N[C@@H](C)C(=O)N[C@@](C)(Cc1ccccc1)C(=O)N[C@H](C(=O)N[C@H](C(=O)N[C@@](C)(CCCCN)C(=O)NCC(=O)NCC(N)=O)C(C)C)C(C)C) [SEQ ID NO 18],100,100,100,100,4940,4.1,5.8
HXEGTFTSDVSSYLEGQAAKEFIAWLVKGR (Aib 2; α-MeSer 8; C-terminal amide) [SEQ ID NO 19],130,130,130,130,–,–,–
HXEGTFTXDVSSYLEGQAAKEFIAWLVKGR (Aib 2; Aib 8; C-terminal amide) [SEQ ID NO 20],290,290,290,290,13400,15,12
HXEGTFTSDVSSYLEGQAAKEFIAWLVKGR (Aib 2; α-MeSer 11; C-terminal amide) [SEQ ID NO 21],340,340,340,340,–,–,–
HXEGTFTSDVXSYLEGQAAKEFIAWLVKGR (Aib 2; Aib 11; C-terminal amide) [SEQ ID NO 22],480,480,390,240,118,0.12,0.12
HXEGTFTSDVSSYLEGQAAKEFIAWLVKGR (Aib 2; α-MeSer 8; α-MeSer 11; C-terminal amide) [SEQ ID NO 23],540,540,540,540,–,–,–
H[Aib]EGTFT[Aib]DV[Aib]SYLEGQAAKEFIAWLVKGR-NH2 (N-terminus assumed; SMILES CC[C@H](C)[C@H](NC(=O)[C@H](Cc1ccccc1)NC(=O)[C@H](CCC(=O)O)NC(=O)[C@H](CCCCN)NC(=O)[C@H](C)NC(=O)[C@H](C)NC(=O)[C@H](CCC(N)=O)NC(=O)CNC(=O)[C@H](CCC(=O)O)NC(=O)[C@H](CC(C)C)NC(=O)[C@H](Cc1ccc(O)cc1)NC(=O)[C@H](CO)NC(=O)C(C)(C)NC(=O)[C@@H](NC(=O)[C@H](CC(=O)O)NC(=O)C(C)(C)NC(=O)[C@@H](NC(=O)[C@H](Cc1ccccc1)NC(=O)[C@@H](NC(=O)CNC(=O)[C@H](CCC(=O)O)NC(=O)C(C)(C)NC(=O)[C@@H](N)Cc1c[nH]cn1)[C@@H](C)O)[C@@H](C)O)C(C)C)C(=O)N[C@@H](C)C(=O)N[C@@H](Cc1c[nH]c2ccccc12)C(=O)N[C@@H](CC(C)C)C(=O)N[C@H](C(=O)N[C@@H](CCCCN)C(=O)NCC(=O)N[C@@H](CCCNC(=N)N)C(N)=O)C(C)C) [SEQ ID NO 24],740,740,740,740,5600,3.3,7.9
HXEGTFTSDVSSYLEGQAAKEFIAWLVKGRK (Aib 2; K(ε-γE-Palmitoyl) after R30; C-terminal amide) [SEQ ID NO 5],81,81,81,81,6.5,0.0075,0.0055
H[Aib]EGS[αMeF]TGDV[αMeS]S[αMeF]LEGEAA[αMeK]E[αMeF]IA[αMeF]VV[αMeK]GG-NH2 (N-terminus assumed; SMILES CC[C@H](C)[C@H](NC(=O)[C@](C)(Cc1ccccc1)NC(=O)[C@H](CCC(=O)O)NC(=O)[C@](C)(CCCCN)NC(=O)[C@H](C)NC(=O)[C@H](C)NC(=O)[C@H](CCC(=O)O)NC(=O)CNC(=O)[C@H](CCC(=O)O)NC(=O)[C@H](CC(C)C)NC(=O)[C@](C)(Cc1ccccc1)NC(=O)[C@H](CO)NC(=O)[C@](C)(CO)NC(=O)[C@@H](NC(=O)[C@H](CC(=O)O)NC(=O)CNC(=O)[C@@H](NC(=O)[C@](C)(Cc1ccccc1)NC(=O)[C@H](CO)NC(=O)CNC(=O)[C@H](CCC(=O)O)NC(=O)C(C)(C)NC(=O)[C@@H](N)Cc1c[nH]cn1)[C@@H](C)O)C(C)C)C(=O)N[C@@H](C)C(=O)N[C@@](C)(Cc1ccccc1)C(=O)N[C@H](C(=O)N[C@H](C(=O)N[C@@](C)(CCCCN)C(=O)NCC(=O)NCC(N)=O)C(C)C)C(C)C) [SEQ ID NO 25],100,100,100,22,544,0.5,0.59
H[Aib]EGS[αMeF]TADV[αMeS]S[αMeF]LEGEAA[αMeK]E[αMeF]IA[αMeF]VV[αMeK]GG-NH2 (N-terminus assumed; SMILES CC[C@H](C)[C@H](NC(=O)[C@](C)(Cc1ccccc1)NC(=O)[C@H](CCC(=O)O)NC(=O)[C@](C)(CCCCN)NC(=O)[C@H](C)NC(=O)[C@H](C)NC(=O)[C@H](CCC(=O)O)NC(=O)CNC(=O)[C@H](CCC(=O)O)NC(=O)[C@H](CC(C)C)NC(=O)[C@](C)(Cc1ccccc1)NC(=O)[C@H](CO)NC(=O)[C@](C)(CO)NC(=O)[C@@H](NC(=O)[C@H](CC(=O)O)NC(=O)[C@H](C)NC(=O)[C@@H](NC(=O)[C@](C)(Cc1ccccc1)NC(=O)[C@H](CO)NC(=O)CNC(=O)[C@H](CCC(=O)O)NC(=O)C(C)(C)NC(=O)[C@@H](N)Cc1c[nH]cn1)[C@@H](C)O)C(C)C)C(=O)N[C@@H](C)C(=O)N[C@@](C)(Cc1ccccc1)C(=O)N[C@H](C(=O)N[C@H](C(=O)N[C@@](C)(CCCCN)C(=O)NCC(=O)NCC(N)=O)C(C)C)C(C)C) [SEQ ID NO 26],100,100,100,30,123,0.099,0.15

# Reference: US20200079833A1 (AstraZeneca / MedImmune, published 2020)
